The target in assay [1] is Ire1^bipless, GFP- and mCherry-tagged copies (FRET pair) (yeast) (UniProt P32361). Kind of assay: FRET or BRET; microscopy-based FRET (spinning disc confocal) between GFP- and mCherry-tagged copies co-expressed in live yeast cells; untreated cells (no DTT). For orientation: BRET reads energy transfer from a luciferase to a nearby fluorophore.
Assay [2] has the same target. Nature of the assay: FRET or BRET; microscopy-based FRET (spinning disc confocal) between GFP- and mCherry-tagged copies co-expressed in live yeast cells; cells treated with 5 mM DTT for 4 h (for Ire1^bipless only 'in the presence of DTT' is printed).

As to “Ire1^bipless, GFP- and mCherry-tagged copies (FRET pair) (from UniProt P32361 19-474; P32361 527-1115) (natural protein)”, the FRET signal is 0.17 a.u in assay [1] and 0.71 a.u in assay [2].
